Test [1] has as its target starch binding domain derived from Rhizopus oryzae glucoamylase (RoSBD) (Rhizopus oryzae) (UniProt P07683). Kind of test: competition sandwich ELISA, 250 nM gp140 premixed with panel, RoSBD-coated plate; competes with the panel's HIV antigen. On the technique in general: An ELISA detects its analyte on a solid surface through an enzyme-linked reagent.
In test [2] the target is starch binding domain derived from Aspergillus niger glucoamylase (AnSBD) (Aspergillus niger) (UniProt P69328). In words: competition sandwich ELISA, 250 nM gp140 premixed with panel, AnSBD-coated plate; competes with the panel's HIV antigen.

Turning to HIV1 gp140 antigen, the inhibition rate in test [1] was 42.9%; in test [2], 40.1%.

For the origin of these results see patent US20100291540A1.
